Measured values from patent US20200024330A1 (published 2020).
Where a chain is given by its changes, count along the chain named.

B1: 1460_G14 (PGG14) (antibody, V domains shown)
VH: QVLLVQSGTEVKKPGSSVKVSCQASGGAFSSYAFSWVRQAPGQGLEWMGMITPVFGETKYAPRFQGRLTLTAEESLSTTYMELRSLTSDDTAFYYCTRDRRVVPMATDNWLDPWGQGTLVTVSS
VL: DIQLTQSPSSLSASVGDRVTVTCRASQTIHTYLNWYQQIPGKAPKLLIYGASTLQSGVPSRFSGSGSGTDFTLTINSLQPEDFATYYCQQSYSTPRTFGQGTRLDIKR
B2: 1495_C14 (PGC14) (antibody, V domains shown)
VH: DGHLVQSGVEVKKTGATVKISCKVSGYSFIDYYLHWVQRAPGKGLEWVGLIDPENGEARYAEKFQGRVTIIADTSIDTGYMEMRSLKSEDTAVYFCAAGAVGADSGSWFDPWGQGTLVTVSS
VL: SYELTQPPSVSVSPGQTASITCSGSKLGDKYVSWYQLRPGQSPILVMYENDRRPSGIPERFSGSNSGDTATLTISGTQALDEADFYCQAWETTTTTFVFFGGGTQLTVL
notes: also called B cell culture plate 1495 well C14
B3: 1460_G14 (PGG14) (antibody, V domains shown)
VH: B1 VH
VL: DIQLTQSPSSLSASVGDRVTVTCRASQTIHTYLNWYQQIPGKAPKLLIYGASTLQSGVPSRFSGSGSGTDFTLTINSLQPEDFATYYCQQSYSTPRTFGQGTRLDIK
notes: also called B cell culture plate 1460 well G14
B4: 1456_P20 (PG20) (antibody, V domains shown)
VH: QVRLVQSGPEVKKPGSSVTVSCQASGGTFSSYAFTWVRQAPGQGLEWLGMVTPIFGEAKYSQRFEGRVTITADESTSTTSIELRGLTSEDTAIYYCARDRRAVPIATDNWLDPWGQGTLVTVSS
VL: B3 VL with T20S, V21I, H30N, T31N, I39T, T53N, S56N, N76S, Y92F
notes: also called B cell culture plate 1456 well P20
B5: 1495_C14 (PGC14) (antibody, human IgG1, lambda, V domains shown)
VH: B2 VH
VL: SYELTQPPSVSVSPGQTASITCSGSKLGDKYVSWYQLRPGQSPILVMYENDRRPSGIPERFSGSNSGDTATLTISGTQALDEADFYCQAWETTTTTFVFFGGGTQLTVLG
B6: 1443_C16 (PG16) (TCN-116) (antibody, V domains shown)
VH: QEQLVESGGGVVQPGGSLRLSCLASGFTFHKYGMHWVRQAPGKGLEWVALISDDGMRKYHSDSMWGRVTISRDNSKNTLYLQFSSLKVEDTAMFFCAREAGGPIWHDDVKYYDFNDGYYNYHYMDVWGKGTTVTVSS
VL: QSALTQPASVSGSPGQTITISCNGTSSDVGGFDSVSWYQQSPGKAPKVMVFDVSHRPSGISNRFSGSKSGNTASLTISGLHIEDEGDYFCSSLTDRSHRIFGGGTKVTVLG
B7: 1456_P20 (PG20) (antibody, human IgG1, kappa, V domains shown)
VH: B4 VH
VL: B1 VL with T20S, V21I, H30N, T31N, I39T, T53N, S56N, N76S, Y92F
B8: 1460_G14 (PGG14) (antibody, human IgG1, kappa, V domains shown)
VH: B1 VH
VL: B1 VL
B9: 1496_C09 (PG9) (TCN-109) (antibody, V domains shown)
VH: QRLVESGGGVVQPGSSLRLSCAASGFDFSRQGMHWVRQAPGQGLEWVAFIKYDGSEKYHADSVWGRLSISRDNSKDTLYLQMNSLRVEDTATYFCVREAGGPDYRNGYNYYDFYDGYYNYHYMDVWGKGTTVTVSS
VL: QSALTQPASVSGSPGQSITISCNGTSNDVGGYESVSWYQQHPGKAPKVVIYDVSKRPSGVSNRFSGSKSGNTASLTISGLQAEDEGDYYCKSLTSTRRRVFGTGTKLTVLG

Target: aMLV envelope protein on pseudotyped virus (negative control) (aMLV)
Test: cell-based or functional assay

Binder | IC50, pseudovirus neutralization, 1 hour Virus/Ab Incubation | IC50, pseudovirus neutralization, 18 hour Virus/Ab Incubation
B1 | > 50 µg/mL | > 50 µg/mL

Target: T1, recombinant monomeric gp120 of HIV-1 isolate JR-CSF (HIV-1 isolate JR-CSF, UniProt P20871 32-503)
T1 construct: domain: gp120
Test: anti-gp120 ELISA, B cell culture supernatant on captured gp120

Binder | ELISA OD
B2 | 3.76 OD
B3 | 3.49 OD
B4 | 3.78 OD

Target: HIV-1 IAVI-C3 envelope protein (Env) on pseudovirus (HIV-1 isolate IAVI-C3)
Test: cell-based or functional assay

Binder | IC50 (µg/mL), pseudovirus neutralization
B5 | 9.5 µg/mL
B6 | 14.8 µg/mL
B7 | > 50 µg/mL
B8 | > 50 µg/mL
B9 | 12.9 µg/mL

Target: HIV-1 IAVI-C22 envelope protein (Env) on pseudovirus (HIV-1 isolate IAVI-C22)
Test: cell-based or functional assay

Binder | IC50 (µg/mL), pseudovirus neutralization
B5 | > 50 µg/mL
B6 | 0.069 µg/mL
B7 | > 50 µg/mL
B8 | > 50 µg/mL

Target: HIV-1 92BR020 envelope protein (Env) on pseudovirus (HIV-1 isolate 92BR020)
Test: cell-based or functional assay

Binder | IC50 (µg/mL), pseudovirus neutralization
B5 | 0.64 µg/mL
B6 | > 50 µg/mL
B7 | > 50 µg/mL
B8 | > 50 µg/mL
B9 | > 50 µg/mL

Target: HIV-1 IAVI-C18 envelope protein (Env) on pseudovirus (HIV-1 isolate IAVI-C18)
Test: cell-based or functional assay

Binder | IC50 (µg/mL), pseudovirus neutralization
B5 | > 50 µg/mL
B6 | 0.007 µg/mL
B7 | > 50 µg/mL
B8 | > 50 µg/mL
B9 | 0.05 µg/mL

Target: HIV-1 92TH021 envelope protein (Env) on pseudovirus (HIV-1 isolate 92TH021)
Test: cell-based or functional assay

Binder | IC50 (µg/mL), pseudovirus neutralization
B5 | > 50 µg/mL
B6 | 0.13 µg/mL
B7 | > 50 µg/mL
B8 | > 50 µg/mL

Target: HIV-1 CMU02 envelope protein (Env) on pseudovirus (HIV-1 isolate CMU02)
Test: cell-based or functional assay

Binder | IC50 (µg/mL), pseudovirus neutralization
B5 | > 50 µg/mL
B6 | > 50 µg/mL
B7 | > 50 µg/mL
B8 | > 50 µg/mL
B9 | > 50 µg/mL

Target: HIV-1 93IN905 envelope protein (Env) on pseudovirus (HIV-1 isolate 93IN905)
Test: cell-based or functional assay

Binder | IC50 (µg/mL), pseudovirus neutralization
B5 | > 50 µg/mL
B6 | 0.1 µg/mL
B7 | > 50 µg/mL
B8 | > 50 µg/mL

Target: HIV-1 92UG005 envelope protein (Env) on pseudovirus (HIV-1 isolate 92UG005)
Test: cell-based or functional assay

Binder | IC50 (µg/mL), pseudovirus neutralization
B5 | > 50 µg/mL
B6 | > 50 µg/mL
B7 | > 50 µg/mL
B8 | > 50 µg/mL
B9 | > 50 µg/mL

Target: HIV-1 92RW020 envelope protein (Env) on pseudovirus (HIV-1 isolate 92RW020)
Test: cell-based or functional assay

Binder | IC50 (µg/mL), pseudovirus neutralization
B5 | 28.6 µg/mL
B6 | 0.004 µg/mL
B7 | 50 µg/mL
B8 | > 50 µg/mL
B9 | 0.06 µg/mL

Target: HIV-1 94UG103 envelope protein (Env) on pseudovirus (HIV-1 isolate 94UG103)
Test: cell-based or functional assay

Binder | IC50 (µg/mL), pseudovirus neutralization
B5 | > 50 µg/mL
B6 | 0.008 µg/mL
B7 | > 50 µg/mL
B8 | > 50 µg/mL
B9 | 0.17 µg/mL

Target: HIV-1 APV-13 envelope protein (Env) on pseudovirus (HIV-1 isolate APV-13)
Test: cell-based or functional assay

Binder | IC50 (µg/mL), pseudovirus neutralization
B5 | > 50 µg/mL
B6 | > 50 µg/mL
B7 | > 50 µg/mL
B8 | > 50 µg/mL
B9 | > 50 µg/mL

Target: aMLV envelope protein on pseudovirus (negative control) (aMLV)
Test: cell-based or functional assay

Binder | IC50 (µg/mL), pseudovirus neutralization
B5 | > 50 µg/mL
B6 | > 50 µg/mL
B7 | > 50 µg/mL
B8 | > 50 µg/mL
B9 | > 50 µg/mL

Target: HIV-1 92UG024 envelope protein (Env) on pseudovirus (HIV-1 isolate 92UG024)
Test: cell-based or functional assay

Binder | IC50 (µg/mL), pseudovirus neutralization
B5 | > 50 µg/mL
B6 | > 50 µg/mL
B7 | > 50 µg/mL
B8 | > 50 µg/mL

Target: HIV-1 93UG077 envelope protein (Env) on pseudovirus (HIV-1 isolate 93UG077)
Test: cell-based or functional assay

Binder | IC50 (µg/mL), pseudovirus neutralization
B5 | > 50 µg/mL
B6 | > 50 µg/mL
B7 | > 50 µg/mL
B8 | > 50 µg/mL
B9 | > 50 µg/mL

Target: HIV-1 APV-6 envelope protein (Env) on pseudovirus (HIV-1 isolate APV-6)
Test: cell-based or functional assay

Binder | IC50 (µg/mL), pseudovirus neutralization
B5 | 7.41 µg/mL
B6 | 0.08 µg/mL
B7 | 25.8 µg/mL
B8 | > 50 µg/mL
B9 | 0.09 µg/mL

Target: HIV-1 APV-17 envelope protein (Env) on pseudovirus (HIV-1 isolate APV-17)
Test: cell-based or functional assay

Binder | IC50 (µg/mL), pseudovirus neutralization
B5 | > 50 µg/mL
B6 | > 50 µg/mL
B7 | > 50 µg/mL
B8 | > 50 µg/mL
B9 | 26.4 µg/mL
